Target: human TMEM106B (human, UniProt Q9NUM4 2-274)
Assay: cell-based or functional assay
Also: test concentration or dose not given here.

Row | Binder | % Protection from CPE
1 | TM-30 (antibody, V domains shown) VH: QVQLQQSGPELVKPGASVKLSCKASDNTFTNYDVNWVRQRPGQGLEWIGWIYPRDGTTIYNEKFKGRATLTVDTSSSTAYMELHSLTSEDSAVFFCARTLPQAMDYWGQGTSVTVSS VL: DVLMTQSPLSLPVSLGDQVSISCRSSQTIVHRNGNTYLEWYLQKPGQSPKLLIYKVSNRFSGVPDRFSGSGSGTDFTLKISRVEAEDLGVYYCFQGSHLPWTFGGGTKLEIK | 104%
2 | TM-54 (antibody, V domains shown) VH: QVQMQQSGPVLVKPGASVTLSCKASGYTFTTYDLNWVKQRPGQGLEWIGWIYPRGGSTEYNEKFKGKATLTVDTSSSTAYMELHSLTSEDSAVYFCAKYSIYAMDYWGQGTSVTVSS VL: DVLMTQTPLSLPVSLGDQASISCRSSQSIVHGNGNTYLEWYLQKPGQSPKLLIYKVSNRFSGVPDRFSGSGSGTDFTLKISRVEAEDLGVYYCFQGSHVPWTFGGGTKLEMK | 68.1%
3 | TM-80 (antibody, V domains shown) VH: QVQLQQPGAELVKPGASVKLSCKASGYTFTTFWMHWVKQRPGQGLEWIGNIDPSDSETHYNQEFKDKATLTVDRSSNTAYMQLSSLTSEDSAVYYCARSSNWDNFDYWGQGTAVTVSS VL: DIVMTQAAPSVPVTPGESVSISCRSSQSLLHVNGHTYLYWFLQRPGQSPQLLIYRMSNLASGVPDRFSGSGSGTVFTLRISRVETEDVGIYYCMQHLQYPFTFGSGTKLEIK | 78%
4 | TM-42 (antibody, V domains shown) VH: QVQLQQSGAELAKPGASVKLSCKASGYTFTNYWMHWVKKRPGQGLEWIGYINPSSGYTKYNQKFKDKATLTADKSSNTAYMQLSSLTYEDSAVYYCTREGGSISDWYFDVWGTGTTVTVSS VL: DIVMTQAAPSLPVTPGESVSISCRSSKSLLHSNGNTYLYWFLQRPGQSPQLLIYRMSNLASGVPDRFSGSGSGTAFTLRISRVEAEDVGVYYCMQHLEYPYTFGGGTKLEIK | 28.4%
5 | TM-84 (antibody, V domains shown) VH: QVQLQQSGAELVKPGASVKMSCKASGYTFTTFPIEWMKQNHGKSLEWIGNFHPYNDDTKYNEKFKGKATLTVEKSSSTVYLELSRLTSDDSAVYYCARYFYGGMDYWGQGTSVTVSS VL: DIQMTQSPASLSVSVGETVTITCRASENIYSSLGWYHQKQGKSPQLLVFAATNLADGVPSRFSGSGSGTQYSLKINSLQSEDFGTYYCQHLWSVPWTFGGGTKLEIK | 53.1%
6 | TM-15 (antibody, V domains shown) VH: QVQLQQPGAEFVRPGASVKLSCKASGYTFTNYWITWVKQRPGHGLEWIGDIYPGSGNSNYNESFKRKATLTVDTSSSTAYMHLSSQTSEDSAVYFCARKAYGGFPYWGQGTLVTVSA VL: DIQMTQSPASLSVSVGETVTITCRVSENIYNNLAWYQQKQEKSPQLLVFAATNLADGVPSRFSGSGSGTQFSLKINSLQSEDFGTYYCQHFWDTPFTFGSGTKLEIK | 63.5%
7 | TM-88 (antibody, V domains shown) VH: EAQLQQSGPVLVKPGASVKMSCKTSGYTFTDYYINWVKQSHGKSLEWIGVINPYSGATYYTQKFKGKATLTVDKSSSTAYMELNSQTSEDSAVYYCARGGYDYGHWYFDVWGTGTTVTVSS VL: ETTVTQSPASLSMAIGEKVTIRCITSSDIDDHMNWYRQKPGEPPEFLISEGNALRPGVPSRFSSSGYGTDFIFTIENILSEDVADYYCLQSDNLPLTFGAGTKLELK | 78.5%
8 | TM-5 (antibody, V domains shown) VH: QVQLQQSGTELARPGASVKVSCKASGYIFTTYGITWVKQRGGQGLEWIGEIYPRSDNTYYNEKFKDKATLTADKSSSTAYMELRSLTSEDSAVYFCARSKGSGTGDYWGQGTTVTVSS VL: DIQMTQSPASLSASVGETVTITCRASENIYIYLAWYQQKQGKTPQLLVYNGKMLAENVPSRFSGSGSGTQFSLKINSLQPEDFGSYYCQHHYGSPPAFGAGTKLELK | 63.3%

Reference: patent US20240166738A1 (Alector, published 2024)
